Data as given in patent publication US7785829 (Biogen, dated 2010).
Blank lines part the entries; values can stand above or below the binder they belong to.

Legend:
[1] = molecular target: His-AP-Sp35 fusion protein (His-tagged alkaline phosphatase fused to the extracellular domain of Sp35, a.a. 34-532) (human) (UniProt P05187); experiment: competition ELISA; AP-Sp35 pre-incubated with 100-fold excess of soluble sNgR344-Fc, immobilized sNgR344-Fc
[2] = molecular target: T1, human NgR1 receptor expressed on COS7 cells (human, UniProt Q9BZR6 27-447); experiment: mutant AP-Sp35 construct tested for NgR1 binding
T1 construct: whole, on cells; also called Nogo receptor-1; nogo receptor-1
T1 sequence (looked up): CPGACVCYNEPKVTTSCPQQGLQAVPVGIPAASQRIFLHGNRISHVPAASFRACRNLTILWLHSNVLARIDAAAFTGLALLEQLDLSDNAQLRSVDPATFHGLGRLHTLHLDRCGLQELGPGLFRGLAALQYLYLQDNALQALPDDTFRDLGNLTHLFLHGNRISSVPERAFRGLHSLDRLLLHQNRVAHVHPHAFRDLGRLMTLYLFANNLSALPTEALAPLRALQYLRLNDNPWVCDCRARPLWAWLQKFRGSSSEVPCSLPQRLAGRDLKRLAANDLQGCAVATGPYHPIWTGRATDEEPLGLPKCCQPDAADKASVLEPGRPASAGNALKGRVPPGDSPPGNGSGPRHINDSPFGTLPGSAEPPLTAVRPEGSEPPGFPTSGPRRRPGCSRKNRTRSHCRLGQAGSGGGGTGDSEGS

[3] = molecular target: T1, human NgR1 receptor expressed on COS7 …; experiment: AP-Sp35 titration on NgR1-transfected COS7 cells, AP activity with 4-nitrophenyl phosphate

percent competition of binding [1]: 80%
B1: sNgR344-Fc (rat NgR1 peptide 35-344 fused to the rat IgG1) (Fc fusion, UniProt Q99M75 35-344, looked up, not shown: a dimerising Fc or GST)
chain: NEPKVTTSCPQQGLQAVPTGIPASSQRIFLHGNRISYVPAASFQSCRNLTILWLHSNALAGIDAAAFTGLTLLEQLDLSDNAQLRVVDPTTFRGLGHLHTLHLDRCGLQELGPGLFRGLAALQYLYLQDNNLQALPDNTFRDLGNLTHLFLHGNRIPSVPEHAFRGLHSLDRLLLHQNHVARVHPHAFRDLGRLMTLYLFANNLSMLPAEVLVPLRSLQYLRLNDNPWVCDCRARPLWAWLQKFRGSSSEVPCNLPQRLAGRDLKRLAASDLEGCAVASGPFRPFQTNQLTDEELLGLPKCCQPDAADKA

fold drop in signal (against the unmutated construct) [2]: > 10 fold
B2: His-AP-Sp35 (34-532) with amino acid 456 mutated from arginine to glutamic acid and amino acid 458 from histidine to valine (other)
chain: TGCPPRCECSAQDRAVLCHRKRFVAVPEGIPTETRLLDLGKNRIKTLNQDEFASFPHLEELELNENIVSAVEPGAFNNLFNLRTLGLRSNRLKLIPLGVFTGLSNLTKLDISENKIVILLDYMFQDLYNLKSLEVGDNDLVYISHRAFSGLNSLEQLTLEKCNLTSIPTEALSHLHGLIVLRLRHLNINAIRDYSFKRLYRLKVLEISHWPYLDTMTPNCLYGLNLTSLSITHCNLTAVPYLAVRHLVYLRFLNLSYNPISTIEGSMLHELLRLQEIQLVGGQLAVVEPYAFRGLNYLRVLNVSGNQLTTLEESVFHSVGNLETLILDSNPLACDCRLLWVFRRRWRLNFNRQQPTCATPEFVQGKEFKDFPDVLLPNYFTCRRARIRDRKAQQVFVDEGHTVQFVCRADGDPPPAILWLSPEKVLVSAKSNGRLTVFPDGTLEVRYAQVQDNGTYLCIAANAGGNDSMPAHLHVRSYSPDWPHQPNKTFAFISNQPGE
notes: also called Sp35 construct in which residues R at 456 and H at 458 were changed into E and V; not shown: N-terminal His tag and alkaline phosphatase (AP) reporter of the His-AP vector, with any junction residues

EC50 [3]: ~6 nM
B3: His-AP-Sp35 fusion protein (His-tagged alkaline phosphatase fused to the extracellular domain of Sp35, a.a. 34-532) (other, human)
chain: IIPVEEENPDFWNREAAEALGAAKKLQPAQTAAKNLIIFLGDGMGVSTVTAARILKGQKKDKLGPEIPLAMDRFPYVALSKTYNVDKHVPDSGATATAYLCGVKGNFQTIGLSAAARFNQCNTTRGNEVISVMNRAKKAGKSVGVVTTTRVQHASPAGTYAHTVNRNWYSDADVPASARQEGCQDIATQLISNMDIDVILGGGRKYMFRMGTPDPEYPDDYSQGGTRLDGKNLVQEWLAKRQGARYVWNRTELMQASLDPSVTHLMGLFEPGDMKYEIHRDSTLDPSLMEMTEAALRLLSRNPRGFFLFVEGGRIDHGHHESRAYRALTETIMFDDAIERAGQLTSEEDTLSLVTADHSHVFSFGGYPLRGSSIFGLAPGKARDRKAYTVLLYGNGPGYVLKDGARPDVTESESGSPEYRQQSAVPLDEETHAGEDVAVFARGPQAHLVHGVQEQTFIAHVMAFAACLEPYTACDLAPPAGTTDAAHPGTGCPPRCECSAQDRAVLCHRKRFVAVPEGIPTETRLLDLGKNRIKTLNQDEFASFPHLEELELNENIVSAVEPGAFNNLFNLRTLGLRSNRLKLIPLGVFTGLSNLTKLDISENKIVILLDYMFQDLYNLKSLEVGDNDLVYISHRAFSGLNSLEQLTLEKCNLTSIPTEALSHLHGLIVLRLRHLNINAIRDYSFKRLYRLKVLEISHWPYLDTMTPNCLYGLNLTSLSITHCNLTAVPYLAVRHLVYLRFLNLSYNPISTIEGSMLHELLRLQEIQLVGGQLAVVEPYAFRGLNYLRVLNVSGNQLTTLEESVFHSVGNLETLILDSNPLACDCRLLWVFRRRWRLNFNRQQPTCATPEFVQGKEFKDFPDVLLPNYFTCRRARIRDRKAQQVFVDEGHTVQFVCRADGDPPPAILWLSPRKHLVSAKSNGRLTVFPDGTLEVRYAQVQDNGTYLCIAANAGGNDSMPAHLHVRSYSPDWPHQPNKTFAFISNQPGE
notes: Order His-AP-Sp35 as in the name; also called alkaline phosphatase-Sp35 conjugate; His-AP-Sp35 (34-532); not shown: His tag
